Assay results reported in a protein production outcome set (Wang et al. 2014).

Experiment: label from the status in PepcDB records
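Also: failed if final PepcDB status was selected cloned or expressed and not failed if soluble or beyond.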

Sequence | protein production
MKRDGHTHTEFCPHGTHDDVEEMILKAIELDFDEYSIVEHAPLSSEFMKNTAGNQEAVTTASMSMSDLPYYFKKMNQMKKKYASDLLIHIGFEVDYLIGYEDFTRDFLNEYGPQTDDGVLSLHFLEGQGGFRSIDFTAEDYNEGIVQFYGGFEQAQLVYLAGVKQSIEADLGAFKPRRIGHISLCQKFQQFFGADGRDFTAEVIAEFEAILALVKKRGYELDFNTAGLFKPLCKETYPPKEIVTLARALEIPFVYGSDSHGVADIGRGYNTYCQKLEHHHHHH | not failed
MSVKLRLPQSAYPIFDRIEEMAWARHYQQIVREEKETELADDLEKGLPQHLFESLCIDHLQRHGANKQAISHAFDDDVEFQERMAEHIRYMAETIAHHQVDIDLEDLEHHHHHH | not failed
MGMGSNGELKYEISQNAYIKLVLHSLRHKTAAVNGVLVGRISPKDDGVVEISDSVPLFHSNLALLPPLEISLIMIEEHYVAQGLSIVGYFHANERFDDVELCGVAKNIGDHISRYFPQAPILLLNNKKLEALSKGKERSPVMQLCVKDASKNWRVVGADGGSKLLLKEPSANVVLSDYISSEKWKDVTDVDDHLDDVTKDWLNPGLFN | failed
MPTNAGTSLSSYKHIVAIGTTVKSESLESAAYEIPRKRKMRSDSAAVSGNSVSTPKKLKSHLPSSVPNPGMSEKEVVEDSNEILRYPVNLAVSDCLGTKSKWSPRDEEQMRAVKEALHVSKAPSTILCREDEQIRIFEFVKGCIDQQKAGSLYICGCPGTGKSLSMEKVVQQVGDWSTQAGLPPVDTLSVNCTSLSKTTDIFSKILGEIKPGKNANTNSSPLQHLQNLFSQKQESSSSRMMLIIADEMDYLITKDRGVLYDLFMLTTLPFSRCILIGVANAIDLADRFLPKLKSLNCKPMVITFRAYSKDQILRILQERLRVLSYVAFQPKALELCARKVAAASGDMRKALCVCRSALEILEIETRGSTGPESQGPTPDDSVVRMDHMAAALSKTFKSPVVETIQSLPQHQQIIICAAAKAFRGSKKDATVGELNKLYLEICKSWMISPAGITEFTNMCTVLNDQGILKVGQARRDKLKRVSLRVDESDITFALQVNSLFILFFANP | failed
MYCKGRREREAYIVVKIDLITGFLGSGKTTFIRKYVKYLVDKGYNVGILENDYGAVNVDMMLLQDLMGPNCHAEMVAGGCGEDCHKRRFKTKLIAMGMSGYDRVIVEPSGIFDVDEFFDTLHEEPLDRWYEVGSIIAIVDAKLDTDMSRQSRYVLASEIANCGALVMSKTSGVSEDEISHTKEFVNKTLEEFQCRRRFDGDVITKAWELFGSEDYERFMSVGYKLNDFTKLWFKQSDVYSSVYIMNRNFTREQLVDIVNRVFSDKDCGDVFRIKGFFSVEQDSWLELNATVHKTEIKPIDKGQKIIIIIGSDLMEDKIKQYFEE | failed
MNAYYIQDRLEAQSWARHYQQIAREEKEAELADDMEKGLPQHLFESLCIDHLQRHGASKKAITRAFDDDVEFQERMAEHIRYIVETIAHHQADIDSEV | failed
MEKPIKTQWQLLMDNRNRFFWLLQAGGWIGYALVNYIGSLMHEMRDIYTLIIILGAYAGFLSTIPLRYLYRRIWEFPPALMVLIAIVVSYVTAVAWAIVDNATYWEIYKFGFRPDSPFFYLKNSLAKFYIILSWSGLYFGIKYYQMLQEEKQKALLASSMAHQAQLKMLRYQLNPHFLFNTLNAISTLILLKENEKANLMVNKLSHFLRFSLDNEPIKKVTLEKEVDALLLYLDIEKVRFDEQLEIDIHLSDETKNALVPSLICQPLIENSIKYAISNVEGVGKIRVRSWSEKENLILEVCDNGPKIETDPEKLFRKDGVGLNNTRQRLKSLYGKQYRFEMLKGAESGLCVRITIPMEMLESQR | failed
MGGAGLDNAQNVRNQTQNQTKPIHVSDRNEAFNRHNENEQFGYVRYQKEQFDGEQQKTPVMNREETAHMISSLTVQLPHIQDAATLVTDREALVVYKTDSKNRELTADQVKKTAASVIPRYYHVYISDNPNHMQSVENYSNLGSGSRDIREIMSGTIQEMKTSPQGSPVSENENANGETRQDMKIDRNDKNARLEHHHHHH | not failed
MTEKEKMLAEKWYDANFDQYLINERARAKDICFELNHTRPSATNKRKELIDQLFQTTTDNVSISIPFDTDYGWNVKLGKNVYVNTNCYFMDGGQITIGDNVFIGPNCGFYTATHPLNFHHRNEGFEKAGPIHIGSNTWFGGHVAVLPGVTIGEGSVIGAGSVVTKDIPPHSLAVGNPCKVVRKIDNDLPSETLNDETIK | not failed
MNIELFIQRAEALHKQLADLYQTASVLPWIPPDLLPQAFKELYSNSKLVQLAAEELYHQNEELIQTRSLLEAERQHYHDLFEFAPDGYLVTNAEGIIQEANLTATKLFNAPKHILVDRSVINFIRLEERESFHCELNQLFQTDKAKKLIVRLHQFHGESFDALLTISVVRSQNGKIKSLHWLLSHINENQQQSLGLVNHENYLSQNRPVYVYAKGENIPLNPLVIWYVRQGLVKLSTFCETGEEVLTGLAKTHMVFGSSMTKLPIYQATALADVELVSINFAEIAVSQMLSHILLPKINQQLQQKESFLVITGRRKIEDRLYHLLQFLKQEIGEPVGEKTRLSVRFTHEDIASACCTTRVTITRLMGKLQQQGLISFDSKKHMIINKRLEDRE | failed
MSLTRDAASITPARVRAHVFRYPVSTPVKTSFGTMHDRPAVLVEVEDSDGAVGWGEVWCNFPACGAEHRARLVETVLAPLLTARAFADPAQAFAHLEARTAVLAIQTGEPGPLAQAIAGLDIALCDLAARRAGQPLWAWLGGSGDRIGVYASGINPENPEDVVARKAAEGYRAFKLKVGFDDARDVRNALHVRELLGAATPLMADANQGWDLPRARQMAQRLGPAQLDWLEEPLRADRPAAEWAELAQAAPMPLAGGENIAGVAAFETALAARSLRVMQPDLAKWGGFSGCLPVARAVVAAGLRYCPHYLGAGIGLQASAHLLAAVPGLASPGLLEVDANDNPLRSLLSPALATLHEGRITLGGAPGLGVTPDLAALRAACAAREGHHHHHH | not failed
MSRLFHQRGNVMPIHVITALPGGGKTAIMVEMLEAEAKIGARPLFAAGIDGLQPGLATVLDDPSQWNAKDAHGNYVVPDGSLVFVDEAWKWFGMKYGGSGMRQTTPDHVRALAEHRHRGLDFVWTTQQAHKQLYSFVHGLIGRHTFIKRRFGTRFLDVWEWDEMVENVNSASNREFSRHQVRTLPKHVYSLYKSAEIHT | failed
MRMRRSFPFLAGSALLVVLSAPAVAADGDEGFTIGDSRITESSGLAASRLHPGVYWTHNDSDDGPYLYAVDSRTGKTVATVTLSGVGSPRDVEAISIGPGNEIYVGDIGDNLGGQWDHVWIYELPEPKVLEDQTIRATQYVVKYADGARDAESLMVHPKTGRVYIVDKKEDGGHLYEGPARLSASGTNVFEPLGAVGLWATDAAFSPDGKQLAVRGYFGGIAYTWNGGKIKRQGQLSVPLQRQGESVTYTADGSELMYGSEGADSAVKPGSVPGYSGSGAKSPSGGGGSASAQDGDSDGSHANYKVGALALAVALALGLGVKRLLRRG | failed
MKRLMFIGPSQCGKTSLTQSLRGEALHYKKTQAIEWSPMAIDTPGEYLENRCLYSALLTSACEADVIALVLNADAQWSPFSPGFTVPMNRPTIGLVTKADLADPQRISLVAQWLTQAGARQIFITSALNNSGLDAVLDFLNSKEPLCLTKLEHHHHHH | failed
MLIPHDLLEADTLNNLLEDFVTREGTDNGDETPLDVRVERARHALRRGEAVILFDPESQQCQLMLRSEVPAELLRD | not failed
MGQPVASKGRGATPTVGKAMLNKYARAFFTRVLTPFAAFLIRRGVSPDTVTLLGTAGVVAGALVFYPMGEFFWGTVVITLFVFSDLVDGNMARQLGRSSRWGAFLDSTLDRVADGAIFGGLALWYAGGGDDIVLCAVSIFCLASGQVVSYTKARGEAIGLPVAVNGLVERAERLVVSLVAAGFAGLHKFGVPGIQYLLPIALWIVAVGSLVTLVQRVVTVRREAAEADAAAQESQGTEAAK | failed
MNEEKQQELLISVIITNYNYDQFIDQAIESVLSQTYYNFELIIVDDGSTDNSRDVISSYTDSRIKALVKNNGGQASAFNAGFEQANGEIICFLDSDDWWKPEKLETIIRWHYFINKDYAIFQHVLDVWYEGKTRPYKHILPSGDCFAEMKKVKKLDFFVPTSGLSFPKKILDRIFPIPIKFIIAADSYIMRTACVFNMVYSIPKSLGFYRQHDNTVFLNPDFDLQPFLKEILIPELNQFYQKYRINYQIEISDYNFNERKKNKKQKIFEYLKKVFFLEHHHHHH | failed
MPAYVFSKESFLKFLEGHLEDDVVVVVSSDVTDFCKKLSESMVGEKEYCFAEFAFPADIFDADEDEIDEMMKYAIVFVEKEKLSEAGRNAIR | not failed
RQLSRHTYAVRALTDIDDFNAQFNTDFDDEEVDTIGGLIMQTFGYLPKRGEEIILKNLQFKVTSADSRRLIQLRVTVPDEHLAEMNNVDEKSE | failed
DSVDKTMHIGRQLGSLVNKGDILCLTGDLGTGKTHISKGIAEGLGIDEHITSPTFNIVNEYHSGRLTLYHFDVYRVNDPDEIEAIGFDEYIFGDGVSLIEWANYIEELIPEEYIHIKIEKLPDMGENFRKITINGYGDRYNYIKEIKE | failed
MKTFKKGVILDAKSVGLKALEVLKEVADFDFYEVTPPSQIVERSIEAEIMVLNKVVITQEVLSQLPKLKLICITATGTDNVDIKSAKALGIEVKNVSAYSTESVAQHTLACALSLLGRINDYDRYCKSGEYSQSDLFTHISDIKMGLIKGSQWGVIGLGTIGKRVAKLAQAFGAKVVYYSPKDKKEEYERLSLKDLLATSDIISIHAPLNESTRDLIALKELQSLKDGAILINVGRGGIVNEKDLAEILETKDLYYASDVFVKEPFEKDHAFLNPKIQNKLLLTPHIAWAYSDSLKTLVEKTKENIQDFLASQK | failed
MQSGDGRRGRLRIFFGFAAGVGKTYGMLTEAHELLMMGKHVVVGYIEPHDRPDTNRLLEGLPQIPPKNIFYKQMVLTEPDIDQIIQQKPEIVLIDELAHSNAEGSRNRKRYQDIDELLNAGIDVFTTVNVQHIESLNDIVEEVTGIEVKETVPDTFLRQATIRVIDVEPDELIERLEQGKIYANENAKRALKNFFIPQKLDQLRGLAIQRASDHINRISGKTIGIQSKLLTVVNDAFPKMTEKCIRWTARLAQGLVVDWTVIQVRTQENTPTNIPLADKLGAEVISIEEDDSFETIVEFAKMTGVTDIIMGKNLRQPWYEKIFIEAFDDRLLKRLKDTELHLIPFNEEKRSLFFKTRKVIEGGGKDLVIAIGGVFLATVVTELMQYIHVGDQNLMLIYISFVLLVARTTSGYFWSSLSSILSVLSFNWFFVEPLYSLTVYKQGYPFTLLLMLVVALMSSNLMIRLKKQADTSMKKEHQMEILYELNKRYVLVESRKQILDISATYLSRLLEREVIIFDRQVKTESVHCINEKKSILNNEDEAAVAFWAAKNQKEAGNGTDTLNGAKGFYLPIAAGRKTLAVLGIERNADLDLENDQLNYLKLVLTQIAVILEQTELKDEKEQVELENEREKVRSNLLRAVSHDLRTPLTVISGIAETLGIGNDLKEETQRKLLKDIQEESQWLIRMVENLLSITRINMDTMKVNKTAEPVEEVIEAVYKHLRKVYPDGQVDIHLPEEVIFIQADPILIEQALFNLIENAFRHGENDLPVKLNVYQEKEQTVFEIENHGEIPLKQFQKIQSNLSGTNEVPVDSKNGLGIGLSIVKTIVHAHNGKMEMTIGRGKTLVRIYLK | failed
MAYSACFLHQSALASSAARSSSSSSSQRHVSLSKPVQIICKAQQSHEDDNSAVSRRLALTLLVGAAAVGSKVSPADAAYGEAANVFGKPKTNTDFLPYNGDGFKVQVPAKWNPSKEIEYPGQVLRFEDNFDATSNLNVMVTPTDKKSITDYGSPEEFLSQVNYLLGKQAYFGETASEGGFDNNAVATANILESSSQEVGGKPYYYLSVLTRTADGDEGGKHQLITATVNGGKLYICKAQAGDKRWFKGARKFVESAATSFSVA | failed
